The record followed here is US20140058068A1 (UNIVERSITY OF MIAMI, published 2014).

The target in assay [1] is GHRH receptor of human pituitary membrane homogenates (human) (UniProt Q02643). Briefly: radioligand competition, [His1,125I-Tyr10,Nle27]hGHRH(1-32)NH2 (0.2 nM) as competitor, human pituitary membrane homogenates. (Displacement assays read how much labelled ligand stays bound in the presence of the test substance.)
The target is the same in assay [2]. Briefly: radioligand competition, 125I-JV-1-42 (~0.2 nM) as competitor, human pituitary membrane homogenates.
Assay [3] has the same target. Described as above. This is another data set of the same source.
Assay [4] concerns the target T1, GHRH receptor of human pituitary membrane homogenates (human, UniProt Q02643 23-423).
T1 construct: whole, on cells; Native receptor in pituitary membrane homogenates, not intact cells; also called hGH-RH receptor
T1 sequence (looked up): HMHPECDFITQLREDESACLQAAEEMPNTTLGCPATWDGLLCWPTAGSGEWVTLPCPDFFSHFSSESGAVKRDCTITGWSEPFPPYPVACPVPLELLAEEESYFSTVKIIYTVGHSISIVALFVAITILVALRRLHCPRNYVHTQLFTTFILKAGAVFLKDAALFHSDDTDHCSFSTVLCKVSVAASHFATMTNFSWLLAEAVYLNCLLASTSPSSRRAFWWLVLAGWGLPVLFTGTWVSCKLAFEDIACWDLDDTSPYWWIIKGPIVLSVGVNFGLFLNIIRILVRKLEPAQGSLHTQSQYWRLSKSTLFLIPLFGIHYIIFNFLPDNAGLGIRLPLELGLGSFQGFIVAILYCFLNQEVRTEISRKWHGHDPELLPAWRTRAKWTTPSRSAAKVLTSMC
Put plainly: radioligand competition, [His1,125I-Tyr10,Nle27]hGHRH(1-32)NH2 (0.2 nM) as competitor, human pituitary membrane homogenates. The source says: Normal human pituitaries were purchased from the National Hormone and Peptide Program (A. F. Parlow, Los Angeles, County Harbor—UCLA Medical Center, Torrance, Calif.).

For assay [5], the target named is T1, GHRH receptor of human pituitary …. Put plainly: radioligand competition, 125I-JV-1-42 (~0.2 nM) as competitor, human pituitary membrane homogenates. From the text:
(§1) Normal human pituitaries were purchased from the National Hormone and Peptide Program (A. F. Parlow, Los Angeles, County Harbor-UCLA Medical Center, Torrance, Calif.).

Assay [6] has the same target. The assay is described as above. The method, then:
as §1
The final binding affinities were expressed as IC₅₀ values and were calculated by using the LIGAND PC computerized curve-fitting program of Munson and Rodbard as modified by McPherson.
This is another data set of the same source.

Square brackets hold non-standard residues; d marks the D form. Ends that are not written are not given here. * marks the point of attachment. Desaminotyrosyl = O=C(CCc1ccc(O)cc1)*; NMeY = CN[C@@H](Cc1ccc(O)cc1)C(=O)O; hArg = N=C(N)NCCCC[C@H](N)C(=O)O; Agmatine = N=C(N)NCCCCN*; Nle = CCCC[C@H](N)C(=O)O; Orn = NCCC[C@H](N)C(=O)O; Abu = CC[C@H](N)C(=O)O; GABA = NCCCC(=O)O

In general, IC50 refers to the concentration that inhibits the measured activity by half. The low end stands for greater potency in that assay, the high end for weaker potency in that assay. In assay [1], “[Dat^1, D-Ala^2, Gln^8, Orn^12, Abu^15, Orn^21, Nle^27, Asp^28, Amc^30]hGH-RH(1-30)NH2 (from UniProt P01286 32-61) (peptide)” displayed an IC50 of 0.08 nM; a Relative affinity (Binding potency) vs GHRH (fold, GHRH(1-29) = 1) of 74; a Relative affinity (Binding potency) vs JI-38 (fold, JI-38 = 1) of 24.4.

With “[Dat^1, D-Ala^2, Fpa5^6, Orn^12, Abu^15, Orn^21, Nle^27, Gab^30]hGH-RH(1-30)NH2 (from UniProt P01286 32-61) (peptide)”, in assay [2], the IC50 was determined as 0.07 nM; the Relative affinity (Binding potency) vs GHRH (fold, GHRH(1-29) = 1) came to 58; the Relative affinity (Binding potency) vs JI-38 (fold, JI-38 = 1) was 24.4. Besides, in assay [3], the IC50 was 0.33 nM and the Relative affinity (Binding potency) vs JI-38 (fold, JI-38 = 1) was determined as 13.2.

In assay [2], “[Dat^1, D-Ala^2, Gln^8, Orn^12, Abu^15, Orn^21, Nle^27, Asp^28, Agm^29]hGH-RH(1-29) (from UniProt P01286 32-60) (peptide)” showed a 50% inhibitory concentration (IC50) of 0.04 nM; a Relative affinity (Binding potency) vs GHRH (fold, GHRH(1-29) = 1) of 102; a Relative affinity (Binding potency) vs JI-38 (fold, JI-38 = 1) of 42.7. In assay [3], this molecule registered an IC50 of 0.52 nM and a Relative affinity (Binding potency) vs JI-38 (fold, JI-38 = 1) of 8.37.

B1: [Dat^1, D-Ala^2, Thr^8, Orn^12, Abu^15, Orn^21, Nle^27, Asp^28, Har^30]hGH-RH(1-30)NH2 (peptide)
chain: [Desaminotyrosyl][dA]DAIFTTSYR[Orn]VL[Abu]QLSAR[Orn]LLQDI[Nle]DR[hArg]-NH2
SMILES: CCCC[C@H](NC(=O)[C@@H](NC(=O)[C@H](CC(=O)O)NC(=O)[C@H](CCC(N)=O)NC(=O)[C@H](CC(C)C)NC(=O)[C@H](CC(C)C)NC(=O)[C@H](CCCN)NC(=O)[C@H](CCCNC(=N)N)NC(=O)[C@H](C)NC(=O)[C@H](CO)NC(=O)[C@H](CC(C)C)NC(=O)[C@H](CCC(N)=O)NC(=O)[C@H](CC)NC(=O)[C@H](CC(C)C)NC(=O)[C@@H](NC(=O)[C@H](CCCN)NC(=O)[C@H](CCCNC(=N)N)NC(=O)[C@H](Cc1ccc(O)cc1)NC(=O)[C@H](CO)NC(=O)[C@@H](NC(=O)[C@@H](NC(=O)[C@H](Cc1ccccc1)NC(=O)[C@@H](NC(=O)[C@H](C)NC(=O)[C@H](CC(=O)O)NC(=O)[C@@H](C)NC(=O)CCc1ccc(O)cc1)[C@@H](C)CC)[C@@H](C)O)[C@@H](C)O)C(C)C)[C@@H](C)CC)C(=O)N[C@@H](CC(=O)O)C(=O)N[C@@H](CCCNC(=N)N)C(=O)N[C@@H](CCCCNC(=N)N)C(N)=O
B1: in assay [4], the IC50 came to 0.07 nM; the “Relative affinity (Binding potency) vs GHRH” value is 84.5 fold, GHRH(1-29) = 1; the “Relative affinity (Binding potency) vs JI-38” value was 27.8 fold, JI-38 = 1.

B2: [N-Me-Tyr^1, Gln^8, Orn^12, Abu^15, Orn^21, Nle^27, Asp^28, Agm^29]hGH-RH(1-29) (peptide)
peptide: [NMeY]ADAIFTQSYR[Orn]VL[Abu]QLSAR[Orn]LLQDI[Nle]D[Agmatine]
notes: also called P20356
On to B2, for which, in assay [5], the concentration for half-maximal inhibition (IC50) is 0.27 nM and the “Relative affinity (Binding potency) vs JI-38” value is 16.1 fold, JI-38 = 1. Besides, in assay [6], the IC50 is 0.01 nM; the “Relative affinity (Binding potency) vs GHRH” value was 406 fold, GHRH(1-29) = 1; the “Relative affinity (Binding potency) vs JI-38” value was 171 fold, JI-38 = 1.

B3: [Dat^1, D-Ala^2, Orn^12, Abu^15, Orn^21, Nle^27, Gln-Gab^30]hGH-RH(1-30)NH2 (peptide)
peptide: [Desaminotyrosyl][dA]DAIFTNSYR[Orn]VL[Abu]QLSAR[Orn]LLQDI[Nle]SRQ[GABA]-NH2
SMILES: CCCC[C@H](NC(=O)[C@@H](NC(=O)[C@H](CC(=O)O)NC(=O)[C@H](CCC(N)=O)NC(=O)[C@H](CC(C)C)NC(=O)[C@H](CC(C)C)NC(=O)[C@H](CCCN)NC(=O)[C@H](CCCNC(=N)N)NC(=O)[C@H](C)NC(=O)[C@H](CO)NC(=O)[C@H](CC(C)C)NC(=O)[C@H](CCC(N)=O)NC(=O)[C@H](CC)NC(=O)[C@H](CC(C)C)NC(=O)[C@@H](NC(=O)[C@H](CCCN)NC(=O)[C@H](CCCNC(=N)N)NC(=O)[C@H](Cc1ccc(O)cc1)NC(=O)[C@H](CO)NC(=O)[C@H](CC(N)=O)NC(=O)[C@@H](NC(=O)[C@H](Cc1ccccc1)NC(=O)[C@@H](NC(=O)[C@H](C)NC(=O)[C@H](CC(=O)O)NC(=O)[C@@H](C)NC(=O)CCc1ccc(O)cc1)[C@@H](C)CC)[C@@H](C)O)C(C)C)[C@@H](C)CC)C(=O)N[C@@H](CO)C(=O)N[C@@H](CCCNC(=N)N)C(=O)N[C@@H](CCC(N)=O)C(=O)NCCCC(N)=O
notes: T0009 prints Asn^s for Asn^8; also called P29702
Turning to B3, in assay [5], the concentration for half-maximal inhibition (IC50) came out at 0.86 nM and the “Relative affinity (Binding potency) vs JI-38” value is 5.06 fold, JI-38 = 1. Moreover, in assay [6], the concentration for half-maximal inhibition (IC50) was 0.05 nM; the “Relative affinity (Binding potency) vs GHRH” value is 81.2 fold, GHRH(1-29) = 1; the “Relative affinity (Binding potency) vs JI-38” value was 34.2 fold, JI-38 = 1.

B4: [Dat^1, D-Ala^2, Ala^8, Orn^12, Abu^15, Orn^21, Nle^27, Asp^28, Har^30]hGH-RH(1-30)NH2 (peptide)
chain: [Desaminotyrosyl][dA]DAIFTASYR[Orn]VL[Abu]QLSAR[Orn]LLQDI[Nle]DR[hArg]-NH2
SMILES: CCCC[C@H](NC(=O)[C@@H](NC(=O)[C@H](CC(=O)O)NC(=O)[C@H](CCC(N)=O)NC(=O)[C@H](CC(C)C)NC(=O)[C@H](CC(C)C)NC(=O)[C@H](CCCN)NC(=O)[C@H](CCCNC(=N)N)NC(=O)[C@H](C)NC(=O)[C@H](CO)NC(=O)[C@H](CC(C)C)NC(=O)[C@H](CCC(N)=O)NC(=O)[C@H](CC)NC(=O)[C@H](CC(C)C)NC(=O)[C@@H](NC(=O)[C@H](CCCN)NC(=O)[C@H](CCCNC(=N)N)NC(=O)[C@H](Cc1ccc(O)cc1)NC(=O)[C@H](CO)NC(=O)[C@H](C)NC(=O)[C@@H](NC(=O)[C@H](Cc1ccccc1)NC(=O)[C@@H](NC(=O)[C@H](C)NC(=O)[C@H](CC(=O)O)NC(=O)[C@@H](C)NC(=O)CCc1ccc(O)cc1)[C@@H](C)CC)[C@@H](C)O)C(C)C)[C@@H](C)CC)C(=O)N[C@@H](CC(=O)O)C(=O)N[C@@H](CCCNC(=N)N)C(=O)N[C@@H](CCCCNC(=N)N)C(N)=O
Take B4: in assay [4], the 50% inhibitory concentration (IC50) amounted to 0.04 nM; the “Relative affinity (Binding potency) vs GHRH” value is 148 fold, GHRH(1-29) = 1; the “Relative affinity (Binding potency) vs JI-38” value is 48.7 fold, JI-38 = 1.

B5: [Dat^1, D-Ala^2, Orn^12, Abu^15, Orn^21, Nle^27, Asp^28, Har^30]hGH-RH(1-30)NH2 (peptide)
chain: [Desaminotyrosyl][dA]DAIFTNSYR[Orn]VL[Abu]QLSAR[Orn]LLQDI[Nle]DR[hArg]-NH2
SMILES: CCCC[C@H](NC(=O)[C@@H](NC(=O)[C@H](CC(=O)O)NC(=O)[C@H](CCC(N)=O)NC(=O)[C@H](CC(C)C)NC(=O)[C@H](CC(C)C)NC(=O)[C@H](CCCN)NC(=O)[C@H](CCCNC(=N)N)NC(=O)[C@H](C)NC(=O)[C@H](CO)NC(=O)[C@H](CC(C)C)NC(=O)[C@H](CCC(N)=O)NC(=O)[C@H](CC)NC(=O)[C@H](CC(C)C)NC(=O)[C@@H](NC(=O)[C@H](CCCN)NC(=O)[C@H](CCCNC(=N)N)NC(=O)[C@H](Cc1ccc(O)cc1)NC(=O)[C@H](CO)NC(=O)[C@H](CC(N)=O)NC(=O)[C@@H](NC(=O)[C@H](Cc1ccccc1)NC(=O)[C@@H](NC(=O)[C@H](C)NC(=O)[C@H](CC(=O)O)NC(=O)[C@@H](C)NC(=O)CCc1ccc(O)cc1)[C@@H](C)CC)[C@@H](C)O)C(C)C)[C@@H](C)CC)C(=O)N[C@@H](CC(=O)O)C(=O)N[C@@H](CCCNC(=N)N)C(=O)N[C@@H](CCCCNC(=N)N)C(N)=O
With B5, in assay [4], the IC50 is 0.14 nM; the “Relative affinity (Binding potency) vs GHRH” value is 42.3 fold, GHRH(1-29) = 1; the “Relative affinity (Binding potency) vs JI-38” value is 13.9 fold, JI-38 = 1.
